Experimental data as given in PMC7396694, “Two MarR-Type Repressors Balance Precursor Uptake and Glycine Betaine Synthesis in Bacillus subtilis to Provide Cytoprotection Against Sustained Osmotic Stress” (Frontiers in Microbiology, 2020).

T1: GbsR-Strep-tag II (Bacillus subtilis JH642) (UniProt P71015)
T1 sequence: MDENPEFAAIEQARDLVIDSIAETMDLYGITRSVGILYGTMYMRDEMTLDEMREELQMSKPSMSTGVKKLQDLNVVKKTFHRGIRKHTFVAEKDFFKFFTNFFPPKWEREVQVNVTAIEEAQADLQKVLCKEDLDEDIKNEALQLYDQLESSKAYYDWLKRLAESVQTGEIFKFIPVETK


Columns and labels:
[1] = molecular target: T1, GbsR-Strep-tag II (Bacillus subtilis JH642); assay: EMSA; conditions: 10 mM Tris pH 8, 150 ug/ml herring sperm DNA, 7.5% glycerol, 1 pmol DNA in 20 ul, 20 min at 25 C; native 8% polyacrylamide gel
[2] = molecular target: the molecule itself; assay: SEC; HiLoad 16/600 Superdex 200 pg; 2 ml protein solution (1 mg/ml) loaded immediately after affinity purification; 100 mM potassium phosphate (pH 8), 300 mM NaCl; column standardised with thyroglobulin, albumin, ovalbumin, cytochrome C

Molecule | binding [1] | stoichiometry N [2]
GGGACTTTGACAGTTTAAAAACCATATGTTAGATTAAGGTTGTTAAAAACATTAAATTTTTATTTAACAAACTTTATTTACGTCAAGGAGGCTTAT (double strand) [gbsA fragment with GbsR operator] | binds | –
GbsR-Strep-tag II recombinant protein (natural protein, Bacillus subtilis, UniProt P71015 1-180, looked up, GbsR, choline-responsive MarR-type repressor of Bacillus subtilis; coding region of gbsR amplified from chromosomal DNA of B. subtilis JH642; also called GbsR repressor; not shown: Strep-tag II, C-terminal, kept) MDENPEFAAIEQARDLVIDSIAETMDLYGITRSVGILYGTMYMRDEMTLDEMREELQMSKPSMSTGVKKLQDLNVVKKTFHRGIRKHTFVAEKDFFKFFTNFFPPKWEREVQVNVTAIEEAQADLQKVLCKEDLDEDIKNEALQLYDQLESSKAYYDWLKRLAESVQTGEIFKFIPVETK | – | 2
